Where a chain is given by its changes, count along the chain named. In names and notes the source's numbering stands.
B1: ICAM-1 Y512A mutant (receptor)
chain: QTSVSPSKVILPRGGSVLVTCSTSCDQPKLLGIETPLPKKELLLPGNNRKVYELSNVQEDSQPMCYSNCPDGQSTAKTFLTVYWTPERVELAPLPSWQPVGKNLTLRCQVEGGAPRANLTVVLLRGEKELKREPAVGEPAEVTTTVLVRRDHHGANFSCRTELDLRPQGLELFENTSAPYQLQTFVLPATPPQLVSPRVLEVDTQGTVVCSLDGLFPVSEAQVHLALGDQRLNPTVTYGNDSFSAKASVSVTAEDEGTQRLTCAVILGNQSQETLQTVTIYSFPAPNVILTKPEVSEGTEVTVKCEAHPRAKVTLNGVPAQPLGPRAQLLLKATPEDNGRSFSCSATLEVAGQLIHKNQTRELRVLYGPRLDERDCPGNWTWPENSQQTPMCQAWGNPLPELKCLKDGTFPLPIGESVTVTRDLEGTYLCRARSTQGEVTRKVTVNVLSPRYEIVIITVVAAAVIMGTAGLSTYLYNRQRKIKKARLQQAQKGTPMKPNTQATPP
notes: Mutant expressed in cells for immunoprecipitation
B2: ICAM-1 Y512D mutant (receptor)
chain: B1 chain with A485D
notes: as for B1

Biological target: T1, SRC (UniProt P12931 2-536, limits assumed)
T1 construct: whole, on cells; Endogenous intracellular protein in cell lysates or stained cells; also called p-SRC (phosphorylated form)
Assay: immunoprecipitation with ICAM-1 Tyr512 mutants

Binder | binding result
B1 | binds
B2 | binds
